The source of these data is paper PMC11289442 (Nature Communications, 2024).

Test in all cases: SDS-PAGE without heat denaturation and immunoblot
In general terms: A western blot detects proteins with antibodies after separation by electrophoresis.

For data set [1], the target named is CFP-OsUVR8a (in transgenic Arabidopsis uvr8-6) (rice (Oryza sativa)).
In data set [2] the target is CFP-OsUVR8b (in transgenic Arabidopsis uvr8-6) (rice (Oryza sativa)).
Data set [3] concerns the molecule itself.

The stoichiometry N is a count of units in the complex or per binding partner. Turning to “CFP-OsUVR8a (in transgenic Arabidopsis uvr8-6) (natural protein)”, in data set [1], the stoichiometry N stood at 2.

“CFP-OsUVR8b (in transgenic Arabidopsis uvr8-6) (natural protein)”: the stoichiometry N in data set [2] worked out at 2.

B1: CFP-OsUVR8a (in transgenic rice) (natural protein)
chain: MHSTGMEMEVEVAGDDEAVPEAPERSVVLISAGASHSVALLSGGVVCSWGRGEDGQLGHGDAEDRPVPTVLTAAFDDAPGGVASVVICGADHTTAYSDEELQLYSWGWGDFGRLGHGNSSDVFNPQPIQALQGVRITQIACGDSHCLAVTVAGHVHSWGRNQNGQLGLGNTEDSLLPQKIQAFEGVRVKMIAAGAEHTAAVTEDGDLYGWGWGRYGNLGLGDRDDRLIPEKVSSVNGQKMVLVACGWRHTITVSSSGSIYTYGWSKYGQLGHGDFEDHLVPHKLEALKDTTISQISGGWRHTMALAADGKLYGWGWNKFGQVGVGDNEDHCSPVQVNFPNEQKVVQVACGWRHTLALTEAKNVFSWGRGTSGQLGHGEIVDRNIPKMIDALSSDGSACKQLESSKAVPMSAKVWVSPSERYAIVPDEKAGKGIPAGNGTETHVPQGDVKRMRV
With B1, in data set [3], the “stoichiometry N” value amounted to 2.

B2: CFP-OsUVR8b (in transgenic rice) (natural protein)
chain: MDAVMSAADDAGAASGREDPPPAVVLVSAGASHSVALLAGNVLCSWGRGEDGQLGHGDAEDRLVPTVLSGFDAAAPGITSVICGADHTTAYSEDEQQVYSWGWGDFGRLGHGNSSDVFTPQPVKALQGIKIKQIACGDSHCLAVTMAGEVQSWGRNQNGQLGLGTTEDSLLPQKIQSFEGVCVKMIAAGAEHTAAVTEDGDLYGWGWGRYGNLGLGDRNDRLVPEKVSSVEGEKMVLIACGWRHTITVSSSGSLYTYGWSKYGQLGHGDFEDHLVPHKLEALKDSSISQISGGWRHTMALTSDGKLYGWGWNKFGQVGVGDTDDHCFPVQVKFPEDQKVAQVACGWRHTLAFTEKKNVFSWGRGTSGQLGHGEIVDRNKPVMIDALSPDGPGCKKLEPSTAVPFAAKVWVSPSERYAIVPDEKVPNSGEGTARGNGADANVPENDVKRMRVHS
B2: the “stoichiometry N” value in data set [3] amounted to 2.
